# Source: patent US20170137467A1 (CHROMOTEK, published 2017)
# T1: BC2T W10R peptide (BC2TW10X library) (human)
# T1 construct: also called W10 permutant R
# T1 peptide: Ac-PDRKAAVSHRQQ-NH2
# T2: BC2T W10P peptide (BC2TW10X library) (human)
# T2 construct: also called W10 permutant P
# T2 peptide: Ac-PDRKAAVSHPQQ-NH2
# T3: BC2T W10M peptide (BC2TW10X library) (human)
# T3 construct: also called W10 permutant M
# T3 peptide: Ac-PDRKAAVSHMQQ-NH2
# T4: BC2T W10Q peptide (BC2TW10X library) (human)
# T4 construct: also called W10 permutant Q
# T4 peptide: Ac-PDRKAAVSHQQQ-NH2
# T5: BC2T W10S peptide (BC2TW10X library) (human)
# T5 construct: also called W10 permutant S
# T5 peptide: Ac-PDRKAAVSHSQQ-NH2
# T6: BC2T W10N peptide (BC2TW10X library) (human)
# T6 construct: also called W10 permutant N
# T6 peptide: Ac-PDRKAAVSHNQQ-NH2
# T7: BC2T W10T peptide (BC2TW10X library) (human)
# T7 construct: also called W10 permutant T
# T7 peptide: Ac-PDRKAAVSHTQQ-NH2
# T8: BC2T W10I peptide (BC2TW10X library) (human)
# T8 construct: Isobaric with the leucine peptide; also called W10 permutant I
# T8 peptide: Ac-PDRKAAVSHIQQ-NH2
# T9: BC2T W10L peptide (BC2TW10X library) (human)
# T9 construct: Isobaric with the isoleucine peptide; also called W10 permutant L
# T9 peptide: Ac-PDRKAAVSHLQQ-NH2
# T10: BC2T W10Y peptide (BC2TW10X library) (human)
# T10 construct: also called W10 permutant Y
# T10 peptide: Ac-PDRKAAVSHYQQ-NH2
# T11: BC2T W10A peptide (BC2TW10X library) (human)
# T11 construct: also called W10 permutant A
# T11 peptide: Ac-PDRKAAVSHAQQ-NH2
# T12: BC2T W10F peptide (BC2TW10X library) (human)
# T12 construct: also called W10 permutant F
# T12 peptide: Ac-PDRKAAVSHFQQ-NH2
# T13: BC2T W10E peptide (BC2TW10X library) (human)
# T13 construct: also called W10 permutant E
# T13 peptide: Ac-PDRKAAVSHEQQ-NH2
# T14: BC2T W10K peptide (BC2TW10X library) (human)
# T14 construct: also called W10 permutant K
# T14 peptide: Ac-PDRKAAVSHKQQ-NH2
# T15: BC2T W10D peptide (BC2TW10X library) (human)
# T15 construct: also called W10 permutant D
# T15 peptide: Ac-PDRKAAVSHDQQ-NH2
# T16: recombinant human β-catenin, full-length (human, UniProt P35222 1-781, limits assumed)
# T16 construct: Purified from E. coli; also called full-length β-catenin
# T16 sequence (looked up): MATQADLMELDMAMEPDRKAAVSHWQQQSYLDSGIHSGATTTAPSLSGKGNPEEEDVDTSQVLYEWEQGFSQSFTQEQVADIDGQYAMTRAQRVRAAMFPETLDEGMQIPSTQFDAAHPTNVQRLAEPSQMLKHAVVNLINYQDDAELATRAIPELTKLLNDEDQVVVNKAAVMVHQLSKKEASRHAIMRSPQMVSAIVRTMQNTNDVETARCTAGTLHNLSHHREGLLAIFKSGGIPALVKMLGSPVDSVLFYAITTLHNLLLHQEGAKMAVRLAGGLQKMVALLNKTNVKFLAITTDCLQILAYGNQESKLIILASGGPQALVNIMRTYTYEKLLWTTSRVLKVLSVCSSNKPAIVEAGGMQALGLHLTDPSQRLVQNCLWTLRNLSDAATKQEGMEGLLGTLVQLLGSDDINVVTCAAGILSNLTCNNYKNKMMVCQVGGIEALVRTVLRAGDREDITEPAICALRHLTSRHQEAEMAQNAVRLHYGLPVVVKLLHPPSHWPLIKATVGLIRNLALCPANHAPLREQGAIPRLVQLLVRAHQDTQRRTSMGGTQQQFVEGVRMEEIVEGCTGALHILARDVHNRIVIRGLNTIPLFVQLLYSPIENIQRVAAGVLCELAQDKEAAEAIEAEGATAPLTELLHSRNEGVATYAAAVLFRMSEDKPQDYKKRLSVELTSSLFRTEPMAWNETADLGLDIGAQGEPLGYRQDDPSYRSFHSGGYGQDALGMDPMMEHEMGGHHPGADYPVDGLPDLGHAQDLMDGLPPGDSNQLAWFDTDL
# B1: BC2 nanobody (VHH)
# VHH: QVQLVESGGGLVQPGGSLTLSCTASGFTLDHYDIGWFRQAPGKEREGVSCINNSDDDTYYADSVKGRFTIFMDNAKDTVYLQMNSLKPEDTAIYYCAEARGCKRGRYEYDFWGQGTQVTVSS
# notes: Alpaca VHH, 122 aa; also called BC2-Nb; BC2 nanotrap (BC2-Nb immobilized on agarose/Sepharose beads); not shown: C-terminal 6xHis-tag added by the pHEN6 vector
# Tests used:
# [1] = biological target: T1, BC2T W10R peptide (BC2TW10X library); assay: BC2TW10X library pulldown with immobilized Nb, LC-MS of the supernatant
# Method: (§1) To investigate the binding specificity of the BC2T and derived mutants peptide libraries for each amino acid position of the sequence […] (SEQ ID NO:4) were synthesized with acetyl and amide groups located at the N-termini or C-termini respectively (Intavis). […] Incubations were performed in 300 μl PBS/0.01% CHAPS for 1 h on a HulaMixer (Life Technologies). Subsequent to a centrifugation step 10 μl supernatant were analyzed in a LC-MS procedure. Peptides were separated using an UltiMate3000 RSLCnano System (Thermo Scientific), composed of a C18 PepMap100μ-Precolumn (300 μm×5 mm; particle size: 5 μm; pore size: 100 Å—Thermo Scientific) and a C18 analytical column (Acclaim Rapid Separation LC (RSLC) Column: 150 mm×5 mm; particle size: 2.2 μm; pore size: 100 Å—Thermo Scientific). A step gradient was applied starting at 8% and ending after 20 min at 30% eluent B (80% acetonitrile, 20% H₂O, 0.1% formic acid). Peptides were analyzed using a FULL-MS-strategy detected by a Q Exactive Plus mass spectrometer (Thermo Scientific). As maximal injection time 100 ms was chosen while setting the AGC target to 3E6. The resolution was set to 70.000. Half-maximal signal areas were referenced to control precipitation approaches using a GFP-specific nanobody immobilized on agarose beads. All experiments were done in triplicates.
# [2] = biological target: T2, BC2T W10P peptide (BC2TW10X library); assay: as above
# Method: as §1
# [3] = biological target: T3, BC2T W10M peptide (BC2TW10X library); assay: as above
# Method: as §1
# [4] = biological target: T4, BC2T W10Q peptide (BC2TW10X library); assay: as above
# Method: as §1
# [5] = biological target: T5, BC2T W10S peptide (BC2TW10X library); assay: as above
# Method: as §1
# [6] = biological target: T6, BC2T W10N peptide (BC2TW10X library); assay: as above
# Method: as §1
# [7] = biological target: T7, BC2T W10T peptide (BC2TW10X library); assay: as above
# Method: as §1
# [8] = biological target: T8, BC2T W10I peptide (BC2TW10X library); assay: as above
# Method: as §1
# [9] = biological target: T9, BC2T W10L peptide (BC2TW10X library); assay: as above
# Method: as §1
# [10] = biological target: T10, BC2T W10Y peptide (BC2TW10X library); assay: as above
# Method: as §1
# [11] = biological target: T11, BC2T W10A peptide (BC2TW10X library); assay: as above
# Method: as §1
# [12] = biological target: T12, BC2T W10F peptide (BC2TW10X library); assay: as above
# Method: as §1
# [13] = biological target: T13, BC2T W10E peptide (BC2TW10X library); assay: as above
# Method: as §1
# [14] = biological target: T14, BC2T W10K peptide (BC2TW10X library); assay: as above
# Method: as §1
# [15] = biological target: T15, BC2T W10D peptide (BC2TW10X library); assay: as above
# Method: as §1
# [16] = biological target: T16, recombinant human β-catenin, full-length; assay: not stated at this place (description)
# Method: The dissociation was induced by two injections of regeneration solution of 15 μl each at the identical flow rates.
binder,measurement,setting,value
B1,binding result,[1],no binding
same,binding result,[2],no binding
same,binding result,[3],no binding
same,binding result,[4],no binding
same,binding result,[5],no binding
same,binding result,[6],no binding
same,binding result,[7],no binding
same,binding result,[8],no binding
same,binding result,[9],no binding
same,binding result,[10],no binding
same,binding result,[11],no binding
same,binding result,[12],no binding
same,binding result,[13],no binding
same,binding result,[14],no binding
same,binding result,[15],no binding
same,Kd,[16],3.7 nM
